Experimental data as given in patent publication US20220033491A1, “COMBINATION THERAPY OF CLDN18 ANTIBODY AND CHEMOTHERAPY DRUGS” (CAFA THERAPEUTICS LIMITED, priority 2018, published 2022).

What was measured:
[1] = system: human gastric cancer PDX-GA0006 model; assay: Analysis of the administration amount of antibody in tumor-forming PDX mice (Example 3); type: in vivo, BALB/c nude mice; details: AB3 group: 100 mg/kg i.p. 3 times a week for 2 weeks, versus 40 and 70 mg/kg; FIG. 5
Experimental: (§1) According to Example 2, different dosage of antibodies were administered to tumor-forming mice. The administration manners are listed as follows:
(§2) 1. AB1, administered with the antibody against CLD18A2 prepared in Example 1, at a dosage of 40 mg/kg, intraperitoneal injection, 3 times a week for 2 weeks.
(§3) 2. AB2, administered with the antibody against CLD18A2 prepared in Example 1, at a dosage of 70 mg/kg, intraperitoneal injection, 3 times a week for 2 weeks.
(§4) 3. AB3, administered with the antibody against CLD18A2 prepared in Example 1, at a dosage of 100 mg/kg, intraperitoneal injection, 3 times a week for 2 weeks.

[2] = system: human gastric cancer PDX-GA0006 model; assay: In vivo efficacy experiment of subcutaneous transplanted tumor in mouse PDX model (Example 2); design: species or system BALB/c nude mice; details: tumors weighed after euthanasia on D51; Ab 40 mg/kg i.p. 3 times a week; epirubicin 1.25 mg/kg, oxaliplatin 3.25 mg/kg, fluorouracil 56.25 mg/kg once a week
Description: A 2×2×2 mm gastric cancer PDX tumor mass was inoculated into BALB/c mice (the day of inoculation was DO). On D27 of subcutaneous inoculation, the tumor volume was 128 mm^3 on average, thereby obtaining the human gastric cancer PDX-GA0006 model, or abbreviated as PDX model. The tumor-forming mice were randomly divided into 6 groups, namely solvent group, antibody group (Ab group), EOF group, EOF+Ab group, OF group, OF+Ab group. During the experiment, the general clinical symptoms of the animals were observed, and the body weight and tumor diameter were measured twice a week. On D51, the mice were euthanized. The manners of administration are listed as follows:
Solvent group: intraperitoneal injection, 3 times a week.
Ab group: antibody against CLD18A2 prepared in Example 1, 40 mg/kg, intraperitoneal injection, 3 times a week.
EOF group: a combination of epirubicin hydrochloride for intraperitoneal injection (1.25 mg/kg)+oxaliplatin for injection (3.25 mg/kg)+fluorouracil injection (56.25 mg/kg), once a week; solvent, intraperitoneal injection, 3 times a week.
EOF+Ab group: EOF (epirubicin hydrochloride (1.25 mg/kg)+oxaliplatin for injection (3.25 mg/kg)+fluorouracil injection (56.25 mg/kg)), once a week, the antibody against CLD18A2 (40 mg/kg), 3 times a week. […]

[3] = Body weight of mice given different dosages of antibody (Example 3); type: in vivo, BALB/c nude mice; details: 40, 70, 100 mg/kg i.p. 3 times a week for 2 weeks; FIG. 6
Experimental: as §1, §2, §3, §4

B1: Ab: humanized antibody targeting CLD18A2, heavy chain variable region SEQ ID NO: 15, light chain variable region SEQ ID NO: 13 (antibody, V domains shown)
VH: QVQLQESGPGLIKPSQTLSLTCTVSGGSISSGYNWHWIRQPPGKGLEWIGYIHYTGSTNYNPALRSRVTISVDTSKNQFSLKLSSVTAADTAIYYCARIYNGNSFPYWGQGTTVTVSS
VL: DIVMTQSPDSLAVSLGERATINCKSSQSLFNSGNQKNYLTWYQQKPGQPPKLLIYWASTRESGVPDRFSGSGSGTDFTLTISSLQAEDVAVYYCQNAYSFPYTFGGGTKLEIKR
[1]
  anti-tumor effects (increase in tumor volume) at different dosages: better anti-tumor effects
[2]
  tumor inhibition rate compared with the solvent group (tumor weight): 1.21%
[3]
  change in body weight of mice: no significant change
